Experimental data from US20230080534A1, “SEMG2 ANTIBODY AND USE THEREOF” (SHANGHAI BIOTROY BIOTECHNIQUE CO., LTD., priority 2020, published 2023).

Legend:
[1] = target: human SEMG2 full-length protein (human) (UniProt Q02383); assay: ELISA, immobilized antigen SEMG2 (1-582)
[2] = target: SEMG2(497-509) polypeptide … (human); assay: ELISA, immobilized peptide …
[3] = target: SEMG2(354-403) fragment (human); assay: ELISA, immobilized antigen SEMG2 (354-403)
[4] = target: SEMG2(563-574) fragment (human); assay: ELISA, immobilized antigen SEMG2 (563-574)
[5] = target: SEMG2(497-509) polypeptide … (human); assay: ELISA, immobilized antigen SEMG2 (497-509)
[6] = target: SEMG2(442-453) fragment (human); assay: ELISA, immobilized antigen SEMG2 (442-453)
[7] = target: human SEMG2 full-length protein (human) (UniProt Q02383); assay: ELISA, plate coated with SEMG2 protein; fit value printed for the flat control curve (see non_binding); the EC50 table prints no unit, the axis is log (antibody concentration, nM)

Chain of human SEMG2 full-length protein (human) (Q02383 24-582 limits assumed): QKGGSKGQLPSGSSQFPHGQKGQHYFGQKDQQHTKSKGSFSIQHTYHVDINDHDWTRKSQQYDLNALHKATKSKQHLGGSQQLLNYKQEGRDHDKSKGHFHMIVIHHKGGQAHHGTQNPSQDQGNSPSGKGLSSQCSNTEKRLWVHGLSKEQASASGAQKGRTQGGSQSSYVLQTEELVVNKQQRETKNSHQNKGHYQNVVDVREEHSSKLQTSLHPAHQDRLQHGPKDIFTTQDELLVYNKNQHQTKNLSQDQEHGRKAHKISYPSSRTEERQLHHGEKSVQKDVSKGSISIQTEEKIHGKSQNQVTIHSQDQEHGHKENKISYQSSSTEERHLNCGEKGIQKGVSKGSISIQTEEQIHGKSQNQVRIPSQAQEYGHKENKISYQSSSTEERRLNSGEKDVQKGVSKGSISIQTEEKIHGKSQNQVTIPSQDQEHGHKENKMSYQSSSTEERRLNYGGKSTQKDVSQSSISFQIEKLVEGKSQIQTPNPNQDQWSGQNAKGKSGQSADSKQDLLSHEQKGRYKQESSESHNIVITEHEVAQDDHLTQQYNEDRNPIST
Chain of SEMG2(354-403) fragment (human) (peptide, as listed by the source): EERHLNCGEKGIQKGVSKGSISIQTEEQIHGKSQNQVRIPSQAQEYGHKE

| Substance | A450 absorbance [1] | OD450 absorbance [2] | A450 absorbance [3] | A450 absorbance [4] | A450 absorbance [5] | A450 absorbance [6] | EC50 [7] [nM] |
| --- | --- | --- | --- | --- | --- | --- | --- |
| HPA042767 (rabbit polyclonal antibody against SEMG2(354-403), Sigma Aldrich) | 1.16 | 0.005 | 1.14 | 0.011 | 0.002 | 0.007 |  |
| HPA042835 (rabbit polyclonal antibody against SEMG2(563-574), Sigma Aldrich) | 1.17 | 0.005 | 0.009 | 1.16 | 0.009 | 0.002 |  |
| mIgG1 (antibody) |  |  |  |  |  |  | 0.0885 |
